4 molecules from US20260297195 (published 2026) can be followed below.

Assay [1] addresses human PDL1-Fc (human). Description: ELISA. A general note: An ELISA detects its analyte on a solid surface through an enzyme-linked reagent.
In assay [2] the target is human PDL1-Fc (human). Description: BLI. For orientation: In BLI a coated tip is dipped into the sample, and binding shifts an interference pattern.
The next assay has as its target human PDL1-His (human). Description: SPR 25C.

As a reminder, the EC50 is the concentration giving half of the maximal effect. Read a high EC50 as weaker potency. The term Kd denotes the free concentration of one partner at which half of the binding sites on the other are occupied at equilibrium, for simple one-to-one binding. The low end stands for higher affinity, the high end for lower affinity.

Sequence of human PDL1-Fc (human) (chain, as listed by the source): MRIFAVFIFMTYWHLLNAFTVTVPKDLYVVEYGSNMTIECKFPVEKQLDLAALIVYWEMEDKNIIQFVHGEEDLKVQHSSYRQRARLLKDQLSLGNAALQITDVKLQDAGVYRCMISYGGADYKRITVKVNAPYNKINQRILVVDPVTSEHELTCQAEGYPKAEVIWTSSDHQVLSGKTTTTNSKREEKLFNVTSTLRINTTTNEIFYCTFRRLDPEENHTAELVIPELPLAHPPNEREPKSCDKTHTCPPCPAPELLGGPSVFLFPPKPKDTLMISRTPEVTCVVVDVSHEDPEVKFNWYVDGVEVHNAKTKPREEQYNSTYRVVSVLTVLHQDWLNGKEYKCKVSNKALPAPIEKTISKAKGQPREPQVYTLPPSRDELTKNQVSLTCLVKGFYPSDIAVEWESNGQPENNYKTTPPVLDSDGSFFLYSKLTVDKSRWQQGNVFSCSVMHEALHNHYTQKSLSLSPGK
Sequence of human PDL1-His (human) (chain, as listed by the source): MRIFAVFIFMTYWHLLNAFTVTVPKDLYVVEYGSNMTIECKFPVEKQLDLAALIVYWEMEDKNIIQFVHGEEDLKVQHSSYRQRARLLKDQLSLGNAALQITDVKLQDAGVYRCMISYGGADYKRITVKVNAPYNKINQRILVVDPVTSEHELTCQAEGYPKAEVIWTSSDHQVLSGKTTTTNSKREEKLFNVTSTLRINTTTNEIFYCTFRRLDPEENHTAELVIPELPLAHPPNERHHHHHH

B1: PDL1-1v5 (antibody, V domains shown)
VH: EVQLLESGGGLVQPGGSLRLSCAASGFTVSNSAVSWARQAPGKGLEWVSLIDSNRNTVYAQSVRGRFTISRDNVKNTVYLQMNSLRAEDTAVYYCAKGWGSTLWGQGTTVTVSS
B1 showed an EC50 in the assay with human PDL1-Fc [1] of 0.0478 µg/mL. The Kd with human PDL1-Fc [2] came to 12.2 nM.

B2: PDL1-1v6 (antibody, V domains shown)
VH: EVQLLESGGGLVQPGGSLRLSCAASGFTVSNSAVSWARQAPGKGLEWVSLIDSNRNTVYAQSVRGRFTISRDNSKNTVYLQMNSLKAEDTAVYYCAKGIWGSTLWGQGTTVTVSS
B2 had a dissociation constant Kd with human PDL1-Fc [2] of 22 nM.

B3: NbPDL1-14-Fc (antibody, V domains shown)
VH: QVQLQESGGGLVQPGGSLRLSCAASGIISDINMVAWYRQAPGKQRELVAKIFRGGSTYYTDFVKGRFTISRENAKNTVYLQMNSLKPDDTAVYYCNARIQIRADRDYSDYWGQGTQVTVSS
In the case of B3, in the assay with human PDL1-His, the binding result is given as “no binding”.

B4: PDL1-14 (antibody, V domains shown)
VH: QVQLQESGGGLVQPGGSLRLSCAASGIISDINMVAWYRQAPGKQRELVAKIFRGGSTYYTDFVKGRFTISRENAKNTVYLQMNSLKPDDTAVYYCNARIQIRADRDYSDYWGQGTQVTVSS
Take B4: the binding result with human PDL1-His is on record as “no binding”.
